Measurements: patent US20250144275A1, “SYSTEM AND METHOD FOR COATING MEDICAL CONDUIT WITH PARTICLES AND USE THEREOF” (UNIVERSITY OF PITTSBURGH - OF THE COMMONWEALTH SYSTEM OF …, priority 2022, published 2025)

System: facial nerve of Lewis rats
Experiment: Histological processing of muscle, mystacial pad and buccal branch nerve
Type: in vivo
Details: mystacial pad, qualitative, 12-week endpoint
Procedure: This study was performed on the facial nerve of Lewis rats (Charles River, Wilmington, MA). Institutional approval was obtained before performing the study, and all animal procedures and housing were performed under the guidelines of the University of Pittsburgh Institutional Animal Care and Use Committee and in compliance with animal experimentation ethics policies.
Surgical procedures. Rats were placed under general anesthesia and maintained with Isoflurane. Preauricular/buccal incision lines were marked (FIG. 8A) and the nerve branches were exposed (FIG. 8B). A 5 mm segment of the marginal mandibular branch was removed to prevent cross-innervation contribution to the whisker movement^41. The buccal branch was then transected, and the resultant 2 mm defect was primarily repaired with 9-0 nylon sutures. […]
Histological processing. […] For the muscles, the mean muscle fiber pixel area was calculated from brightfield staining. […] Cross-sections of the main buccal branch distal to the injury site were analyzed for the number of axons. For S100, sections of the nerve distal and proximal to the transection and repair site were quantified separately and the ratio was used for comparison. All samples were blinded before quantification.

B1: GDNF: Recombinant human GDNF protein (R&D Systems), active agent of the microspheres (protein, UniProt P39905 78-211, looked up)
Glial cell line-derived …: SPDKQMAVLPRRERNRQAAAANPENSRGKGRRGQRGKNRGCVLTAIHLNVTDLGLGYETKEELIFRYCSGSCDAAETTYDKILKNLSRNRRLVSDKVGQACCRPIAFDDDLSFLDDNLVYHILRKHSAKRCGCI
modifications: in microspheres
For B1, the “local adverse effects on whisker pad and intrinsic vibrissae muscles (morphology)” value was “no local adverse effects”.
